Legend:
HepG2 cells [1] = experiment: 4-IPO toxicity assay: survival of transduced HepG2 cells by flow cytometry (propidium iodine); type: cell-based, human; details: for 4-IPO processing activity / cell killing (in words): transduced cells challenged with 4-IPO
From the text: Initially, the serine at position 427 in the human CYP4B1 was mutated back to proline (h-P427), which is present at this position in all CYP4B1 proteins. Additionally a proline to serine exchange was created in the native rabbit CYP4B1 enzyme at the corresponding position 422 (r-P422). To immediately exclude the possibility that the different activities between human and the rabbit protein isoforms are simply due to differences in mRNA stability, the human CYP4B1 cDNA (SEQ ID NO.: 2) was optimized for human-codon usage (SEQ ID NO.: 3) by de novo synthesis with silent mutagenesis of the cDNA, thus removing internal TATA-boxes, instability motives, RNA secondary structures and (cryptic) splice donor/acceptor sites and ensuring an average GC content of around 60%. All cDNAs were cloned into the same lentiviral (LV) HIV1-based expression vector and LV supernatants produced by plasmid transfection in HEK293T cells. Subsequently, the two rabbit and the four human cDNAs were stably expressed in the human liver cell line HepG2. Stably expressing transduced cells were challenged after five days with increasing concentrations of 4-IPO for 24, 48 and 72 hours and then the survival of cells analyzed by flow cytometry using propidium iodine for live/dead cell discrimination.
(§1) Next, it was analyzed whether the different activities of the human and the rabbit proteins in processing 4-IPO could be explained by differences in protein half-life. However, as no antibody was available that can detect both CYP4B1 proteins, EGFP fusion constructs were generated. With these constructs, EGFP antibodies can be utilized to visualize and compare the expression levels and the half-lives of the fusion proteins in cells by western blots. EGFP expression can also be used for flow cytometry assessment of the expression levels due to the fluorescent properties of the fusion proteins. 5′- and 3′-fusions of EGFP with the native rabbit P422 and the human P427 CYP4B1 proteins were cloned in LV vectors with an IRES-NEO (NEO=neomycin phosphotransferase cDNA, npt II) and stably expressed in HepG2 cells (FIG. 3 B). For comparison, the corresponding IRES-EGFP constructs were also included, as these vectors had already been used in previous experiments and activity measurements thus already existed. Transduced cells were incubated for 24, 48 and 72 hours with increasing concentration of 4-IPO. Cultures were then harvested, cells stained with propidium iodine and subsequently analyzed for survival of transduced EGFP+ cells by flow cytometry (FIG. 3 A).

HepG2 cells [2] = experiment: Half-life of CYP4B1/EGFP fusion proteins after cycloheximide (western blot, FACS); type: cell-based, human; details: EGFP fusion, 50 μg/ml cycloheximide, G418-selected HepG2 cells
Method: FIGS. 3 C and D show CYP4B1 stability as analysed by western blotting and by flow cytometry. The studies on protein expression and stability were performed with the rabbit and human CYP4B1/EGFP fusion construction in the lentiviral vector with the additional IRES-neomycin cassette. Half-life analysis was performed by adding 50 μg/ml cycloheximide to the transduced and G418-selected HepG2 cells. Samples were collected at the indicated time points.
as §1
After standard inhibition of de novo protein synthesis by cycloheximide, the half-life of the CYP4B1 proteins in stably transduced and G418-resistant HepG2 cells was assessed by determining the protein expression levels over time either in western blotting or in FACS analysis as EGFP fluorescence. […] For the human native protein (h-S427), the mean fluorescence indicates a short average half-life of only 6 hours.

primary human T-cells = experiment: 4-IPO toxicity in transduced primary T-cells; type: cell-based; details: after 24 hours, 4-IPO, IRES-EGFP-WPRO vector, FIG. 17
From the text: Compared to the HepG2 liver cells, primary T-cells might not provide an optimal environment for the function of P450 cytochromes (although the necessary reductase is ubiquitously expressed) and the infection of primary T-cells is considerably more complex.
The T cells were isolated by Ficoll and stimulated with CD3, CD28 and IL2 for 3 days before they were infected with lentiviral vectors using fibronectin. For optimal toxicity in T cells, the suicide genes were not expressed as EGFP fusions proteins but a IRES-EGFP-WPRO vector construct was used. […] However, after 24 hours over 70% of the transgenic T cells were eliminated by CYP4B1 P427 mut12. […] The determination of the virus titer was based on the titration of the reference cell line HT1080.

B1: variant of hCYP4B1 having an insertion of a serine at position 207: human CYP4B1 variant with serine insertion at amino acid position 207 (protein, listed as Homo sapiens)
chain: MVPSFLSLSFSSLGLWASGLILVLGFLKLIHLLLRRQTLAKAMDKFPGPPTHWLFGHALEIQETGSLDKVVSWAHQFPYAHPLWFGQFIGFLNIYEPDYAKAVYSRGDPKAPDVYDFFLQWIGRGLLVLEGPKWLQHRKLLTPGFHYDVLKPYVAVFTESTRIMLDKWEEKAREGKSFDIFCDVGHMALNTLMKCTFGRGDTGLGHSRDSSYYLAVSDLTLLMQQRLVSFQYHNDFIYWLTPHGRRFLRACQVAHDHTDQVIRERKAALQDEKVRKKIQNRRHLDFLDILLGARDEDDIKLSDADLRAEVDTFMFEGHDTTTSGISWFLYCMALYPEHQHRCREEVREILGDQDFFQWDDLGKMTYLTMCIKESFRLYPPVPQVYRQLSKPVTFVDGRSLPAGSLISMHIYALHRNSAVWPDPEVFDSLRFSTENASKRHPFAFMPFSAGPRNCIGQQFAMSEMKVVTAMCLLRFEFSLDPSRLPIKMPQLVLRSKNGFHLHLKPLGPGSGK
modifications: serine insertion at 207
Question: Which “4-IPO processing activity / cell killing (in words)” value (HepG2 cells [1]) does the source give for B1 here?
Answer: The value was “did not reveal any functional differences”.

B2: r-S422: rabbit CYP4B1 with proline-to-serine exchange at position 422 (protein, UniProt P15128 1-506, looked up, variant P422S)
Cytochrome P450 4B1: MLGFLSRLGLWASGLILILGFLKLLRLLLRRQRLARAMDSFPGPPTHWLFGHALEIQKTGSLDKVVTWTQQFPYAHPLWVGQFIGFLNIYEPDYAKAVYSRGDPKAPDVYDFFLQWIGKGLLVLDGPKWFQHRKLLTPGFHYDVLKPYVAIFADSTRIMLEKWEKKACEGKSFDIFSDVGHMALDTLMKCTFGKGDSGLNHRDSSYYVAVSELTLLMQQRIDSFQYHNDFIYWLTPHGRRFLRACRAAHDHTDRVIRQRKAALQDEKEREKIQNRRHLDFLDILLDVRGESGVQLSDTDLRAEVDTFMFEGHDTTTSGISWFLYCMALYPEHQQRCREEVREILGDQDSFQWEDLAKMTYLTMCMKECFRLYPPVPQVYRQLSKPVSFVDGRSLPAGSLISLHIYALHRNSDVWPDPEVFDSLRFSPENSSGRHPYAFIPFSAGPRNCIGQQFAMNEMKVVTALCLLRFEFSVDPLRLPIKLPQLVLRSKNGIHLYLKPLGPKAEK
Question: How did the “transduced HepG2 cells eliminated / dead” value (HepG2 cells [1]; after 24 hours of 4-IPO treatment, FIG. 2) turn out when B2 was run?
Answer: Its value is 73%.

Question: And the protein half-life (HepG2 cells [2])?
Answer: Its protein half-life is “approx. 30 hours”.

B3: CYP4B1 P427 mut18: modified human CYP4B1 P427 with sections 1+2+3 of the rabbit protein; differs in 19 amino acids (protein)
chain: MVPSFLSLSFSSLGLWASGLILVLGFLKLIHLLLRRQTLAKAMDKFPGPPTHWLFGHALEIQETGSLDKVVSWAHQFPYAHPLWFGQFIGFLNIYEPDYAKAVYSRGDPKAPDVYDFFLQWIGKGLLVLDGPKWFQHRKLLTPGFHYDVLKPYVAIFADSTRIMLEKWEKKACEGKSFDIFSDVGHMALDTLMKCTFGKGDSGLNHRDSSYYVAVSELTLLMQQRIDSFQYHNDFIYWLTPHGRRFLRACQVAHDHTDQVIRERKAALQDEKVRKKIQNRRHLDFLDILLGARDEDDIKLSDADLRAEVDTFMFEGHDTTTSGISWFLYCMALYPEHQHRCREEVREILGDQDFFQWDDLGKMTYLTMCIKESFRLYPPVPQVYRQLSKPVTFVDGRSLPAGSLISMHIYALHRNSAVWPDPEVFDPLRFSTENASKRHPFAFMPFSAGPRNCIGQQFAMSEMKVVTAMCLLRFEFSLDPSRLPIKMPQLVLRSKNGFHLHLKPLGPGSGK
Question: How did the “4-IPO processing activity / cell killing (in words)” value (HepG2 cells [1]; listed as human P427 CYP4B1 protein with sections 1+2+3) turn out when B3 was run?
Answer: The value was “almost as high as the activity of native rabbit protein”.

Question: And the “4-IPO processing activity / cell killing (in words)” value (HepG2 cells [1]; listed as modified human CYP4B1 P427 protein with sections 1+2+3 of the rabbit protein)?
Answer: Its value is “increased activity for toxifying 4-IPO”.

Question: What about the cell survival rates (HepG2 cells [1]; within 72 hours upon applying 4-IPO, FIG. 6 D) of the same molecule?
Answer: The cell survival rates was “about 10%”.

B4: CYP4B1 P427 mut12: modified human CYP4B1 P427 protein comprising 12 further amino acid exchanges found in other human CYP4 proteins (protein)
chain: MVPSFLSLSFSSLGLWASGLILVLGFLKLIHLLLRRQTLAKAMDKFPGPPTHWLFGHALEIQETGSLDKVVSWAHQFPYAHPLWFGQFIGFLNIYEPDYAKAVYSRGDPKAPDVYDFFLQWIGKGLLVLDGPKWFQHRKLLTPGFHYDVLKPYVAIFADSTRIMLDKWEKKAREGKSFDIFCDVGHMALDTLMKCTFGKGDSGLGHRDSSYYLAVSELTLLMQQRIVSFQYHNDFIYWLTPHGRRFLRACQVAHDHTDQVIRERKAALQDEKVRKKIQNRRHLDFLDILLGARDEDDIKLSDADLRAEVDTFMFEGHDTTTSGISWFLYCMALYPEHQHRCREEVREILGDQDFFQWDDLGKMTYLTMCIKESFRLYPPVPQVYRQLSKPVTFVDGRSLPAGSLISMHIYALHRNSAVWPDPEVFDPLRFSTENASKRHPFAFMPFSAGPRNCIGQQFAMSEMKVVTAMCLLRFEFSLDPSRLPIKMPQLVLRSKNGFHLHLKPLGPGSGK
Question: B4 was tested. Which “4-IPO processing activity / cell killing (in words)” value (HepG2 cells [1]) did it give?
Answer: Its value is “equally good killing curve as the modified human CYP4B1 P427 mut18”.

Question: And the “transgenic T cells eliminated” value (primary human T-cells)?
Answer: The value was “over 70%”.

B5: modified human CYP4B1 P427 protein with the additional section 1 of the rabbit protein: differs in only four amino acid from the native human CYP4B1 protein (protein)
chain: MVPSFLSLSFSSLGLWASGLILVLGFLKLIHLLLRRQTLAKAMDKFPGPPTHWLFGHALEIQETGSLDKVVSWAHQFPYAHPLWFGQFIGFLNIYEPDYAKAVYSRGDPKAPDVYDFFLQWIGKGLLVLDGPKWFQHRKLLTPGFHYDVLKPYVAVFTESTRIMLDKWEEKAREGKSFDIFCDVGHMALNTLMKCTFGRGDTGLGHRDSSYYLAVSDLTLLMQQRLVSFQYHNDFIYWLTPHGRRFLRACQVAHDHTDQVIRERKAALQDEKVRKKIQNRRHLDFLDILLGARDEDDIKLSDADLRAEVDTFMFEGHDTTTSGISWFLYCMALYPEHQHRCREEVREILGDQDFFQWDDLGKMTYLTMCIKESFRLYPPVPQVYRQLSKPVTFVDGRSLPAGSLISMHIYALHRNSAVWPDPEVFDPLRFSTENASKRHPFAFMPFSAGPRNCIGQQFAMSEMKVVTAMCLLRFEFSLDPSRLPIKMPQLVLRSKNGFHLHLKPLGPGSGK
Question: With B5 as the molecule, how does the “4-IPO processing activity / cell killing (in words)” value (HepG2 cells [1]) read?
Answer: Its value is “increased activity for toxifying 4-IPO”.

B6: coop H-P427: h-P427 expressed from cDNA optimized for human codon usage (protein, listed as Homo sapiens)
chain: MVPSFLSLSFSSLGLWASGLILVLGFLKLIHLLLRRQTLAKAMDKFPGPPTHWLFGHALEIQETGSLDKVVSWAHQFPYAHPLWFGQFIGFLNIYEPDYAKAVYSRGDPKAPDVYDFFLQWIGRGLLVLEGPKWLQHRKLLTPGFHYDVLKPYVAVFTESTRIMLDKWEEKAREGKSFDIFCDVGHMALNTLMKCTFGRGDTGLGHRDSSYYLAVSDLTLLMQQRLVSFQYHNDFIYWLTPHGRRFLRACQVAHDHTDQVIRERKAALQDEKVRKKIQNRRHLDFLDILLGARDEDDIKLSDADLRAEVDTFMFEGHDTTTSGISWFLYCMALYPEHQHRCREEVREILGDQDFFQWDDLGKMTYLTMCIKESFRLYPPVPQVYRQLSKPVTFVDGRSLPAGSLISMHIYALHRNSAVWPDPEVFDSLRFSTENASKRHPFAFMPFSAGPRNCIGQQFAMSEMKVVTAMCLLRFEFSLDPSRLPIKMPQLVLRSKNGFHLHLKPLGPGSGK
Question: How did the “cell survival rates upon administration of 4-IPO” value (HepG2 cells [1]; transduced cells, FIG. 2) turn out when B6 was run?
Answer: The value was 37%.

Reference: patent US20150216948A1, “CYTOCHROME P450 SUICIDE GENE SYSTEM” (priority 2012, published 2015)
